Bridges are numbered along the chain shown (N, C = ends). [ ]: non-standard residue; d: D form. Chg = N[C@H](C(=O)O)C1CCCCC1

In the test the target is T1, CathepsinG, from human neutrophils (human, UniProt P08311 21-244).
T1 sequence (looked up): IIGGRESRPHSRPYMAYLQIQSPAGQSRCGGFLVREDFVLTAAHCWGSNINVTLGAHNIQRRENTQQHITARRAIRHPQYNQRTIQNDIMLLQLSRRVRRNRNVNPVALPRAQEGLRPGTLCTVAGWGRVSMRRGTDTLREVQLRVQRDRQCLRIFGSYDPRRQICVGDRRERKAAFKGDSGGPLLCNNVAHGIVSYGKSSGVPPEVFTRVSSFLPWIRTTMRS
Kind of test: cell-based or functional assay.

B1: Example 29 (peptide)
peptide: XCTKSDPPICD
HELM: PEPTIDE1{[O=C([C@H](CCc1ccccc1)N[*:1])[*:2]].C.T.K.S.D.P.P.I.C.D.[dP].P}$PEPTIDE1,PEPTIDE1,2:R3-10:R3|PEPTIDE1,PEPTIDE1,1:R1-13:R2$$$V2.0
SMILES: CC[C@H](C)[C@@H]1NC(=O)[C@@H]2CCCN2C(=O)[C@@H]2CCCN2C(=O)[C@H](CC(=O)O)NC(=O)[C@H](CO)NC(=O)[C@H](CCCCN)NC(=O)[C@H]([C@@H](C)O)NC(=O)[C@@H]2CSSC[C@H](NC1=O)C(=O)N[C@@H](CC(=O)O)C(=O)N1CCC[C@@H]1C(=O)N1CCC[C@H]1C(=O)N[C@@H](CCc1ccccc1)C(=O)N2
For B1, the IC50 turned out to be 42 nmol.

B2: Example 43 (peptide)
peptide: XCTKSDPPICD
HELM: PEPTIDE1{[Nle].C.T.K.S.D.P.P.I.C.D.[dP].P}$PEPTIDE1,PEPTIDE1,2:R3-10:R3|PEPTIDE1,PEPTIDE1,1:R1-13:R2$$$V2.0
SMILES: CCCC[C@@H]1NC(=O)[C@@H]2CCCN2C(=O)[C@H]2CCCN2C(=O)[C@H](CC(=O)O)NC(=O)[C@@H]2CSSC[C@H](NC1=O)C(=O)N[C@@H]([C@@H](C)O)C(=O)N[C@@H](CCCCN)C(=O)N[C@@H](CO)C(=O)N[C@@H](CC(=O)O)C(=O)N1CCC[C@H]1C(=O)N1CCC[C@H]1C(=O)N[C@@H]([C@@H](C)CC)C(=O)N2
B2 displayed an IC50 of 77 nmol.
Under cyclo([Chg]CTK[AlloThr]DPPYCY[dP]P) (disulfide 2-10) [Example 67] stands 48 nmol.
The molecule cyclo(FCTKSDPPICS[dN]P) (disulfide 2-10) [Example 69] gave an IC50 of 68 nmol.

B3: Example 33 (peptide)
peptide: XCTKSDPPICN
HELM: PEPTIDE1{[Cha].C.T.K.S.D.P.P.I.C.N.[dP].P}$PEPTIDE1,PEPTIDE1,2:R3-10:R3|PEPTIDE1,PEPTIDE1,1:R1-13:R2$$$V2.0
SMILES: CC[C@H](C)[C@@H]1NC(=O)[C@@H]2CCCN2C(=O)[C@@H]2CCCN2C(=O)[C@H](CC(=O)O)NC(=O)[C@H](CO)NC(=O)[C@H](CCCCN)NC(=O)[C@H]([C@@H](C)O)NC(=O)[C@@H]2CSSC[C@H](NC1=O)C(=O)N[C@@H](CC(N)=O)C(=O)N1CCC[C@@H]1C(=O)N1CCC[C@H]1C(=O)N[C@@H](CC1CCCCC1)C(=O)N2
Molecule B3 came in with an IC50 of 45 nmol.

B4: Example 45 (peptide)
peptide: XCTKSDPPICN
HELM: PEPTIDE1{[O=C([C@H](Cc1ccccc1Cl)N[*:1])[*:2]].C.T.K.S.D.P.P.I.C.N.[dP].P}$PEPTIDE1,PEPTIDE1,2:R3-10:R3|PEPTIDE1,PEPTIDE1,1:R1-13:R2$$$V2.0
SMILES: CC[C@H](C)[C@@H]1NC(=O)[C@@H]2CCCN2C(=O)[C@@H]2CCCN2C(=O)[C@H](CC(=O)O)NC(=O)[C@H](CO)NC(=O)[C@H](CCCCN)NC(=O)[C@H]([C@@H](C)O)NC(=O)[C@@H]2CSSC[C@H](NC1=O)C(=O)N[C@@H](CC(N)=O)C(=O)N1CCC[C@@H]1C(=O)N1CCC[C@H]1C(=O)N[C@@H](Cc1ccccc1Cl)C(=O)N2
In the case of B4, the IC50 was found to be 47 nmol.

B5: Example 61 (peptide)
peptide: WCTKSDPPICS
HELM: PEPTIDE1{W.C.T.K.S.D.P.P.I.C.S.[dP].P}$PEPTIDE1,PEPTIDE1,2:R3-10:R3|PEPTIDE1,PEPTIDE1,1:R1-13:R2$$$V2.0
SMILES: CC[C@H](C)[C@@H]1NC(=O)[C@@H]2CCCN2C(=O)[C@@H]2CCCN2C(=O)[C@H](CC(=O)O)NC(=O)[C@H](CO)NC(=O)[C@H](CCCCN)NC(=O)[C@H]([C@@H](C)O)NC(=O)[C@@H]2CSSC[C@H](NC1=O)C(=O)N[C@@H](CO)C(=O)N1CCC[C@@H]1C(=O)N1CCC[C@H]1C(=O)N[C@@H](Cc1c[nH]c3ccccc13)C(=O)N2
The molecule B5 registered an IC50 of 72 nmol.

B6: Example 27 (peptide)
peptide: XCTKSDPPICN
HELM: PEPTIDE1{[O=C([C@H](CCc1ccccc1)N[*:1])[*:2]].C.T.K.S.D.P.P.I.C.N.[dP].P}$PEPTIDE1,PEPTIDE1,2:R3-10:R3|PEPTIDE1,PEPTIDE1,1:R1-13:R2$$$V2.0
SMILES: CC[C@H](C)[C@@H]1NC(=O)[C@@H]2CCCN2C(=O)[C@@H]2CCCN2C(=O)[C@H](CC(=O)O)NC(=O)[C@H](CO)NC(=O)[C@H](CCCCN)NC(=O)[C@H]([C@@H](C)O)NC(=O)[C@@H]2CSSC[C@H](NC1=O)C(=O)N[C@@H](CC(N)=O)C(=O)N1CCC[C@@H]1C(=O)N1CCC[C@H]1C(=O)N[C@@H](CCc1ccccc1)C(=O)N2
For B6, the IC50 came to 48 nmol.

B7: Example 66 (peptide)
peptide: XCTKSDPPXCY
HELM: PEPTIDE1{[O=C([C@@H](N[*:1])C1CCCCC1)[*:2]].C.T.K.S.D.P.P.[Cha].C.Y.[dP].P}$PEPTIDE1,PEPTIDE1,2:R3-10:R3|PEPTIDE1,PEPTIDE1,1:R1-13:R2$$$V2.0
SMILES: C[C@@H](O)[C@@H]1NC(=O)[C@@H]2CSSC[C@H](NC(=O)[C@H](CC3CCCCC3)NC(=O)[C@@H]3CCCN3C(=O)[C@@H]3CCCN3C(=O)[C@H](CC(=O)O)NC(=O)[C@H](CO)NC(=O)[C@H](CCCCN)NC1=O)C(=O)N[C@@H](Cc1ccc(O)cc1)C(=O)N1CCC[C@@H]1C(=O)N1CCC[C@H]1C(=O)N[C@@H](C1CCCCC1)C(=O)N2
B7 displayed an IC50 of 48 nmol.

B8: Example 35 (peptide)
peptide: XCTKSDPPICD
HELM: PEPTIDE1{[Cha].C.T.K.S.D.P.P.I.C.D.[dP].P}$PEPTIDE1,PEPTIDE1,2:R3-10:R3|PEPTIDE1,PEPTIDE1,1:R1-13:R2$$$V2.0
SMILES: CC[C@H](C)[C@@H]1NC(=O)[C@@H]2CCCN2C(=O)[C@@H]2CCCN2C(=O)[C@H](CC(=O)O)NC(=O)[C@H](CO)NC(=O)[C@H](CCCCN)NC(=O)[C@H]([C@@H](C)O)NC(=O)[C@@H]2CSSC[C@H](NC1=O)C(=O)N[C@@H](CC(=O)O)C(=O)N1CCC[C@@H]1C(=O)N1CCC[C@H]1C(=O)N[C@@H](CC1CCCCC1)C(=O)N2
In turn, B8 registered an IC50 of 54 nmol.

B9: Example 70 (peptide)
peptide: XCTKSDPPXCN
HELM: PEPTIDE1{[Nc1ccc(C[C@H](N[*:1])C(=O)[*:2])cc1].C.T.K.S.D.P.P.[Cha].C.N.[dP].P}$PEPTIDE1,PEPTIDE1,2:R3-10:R3|PEPTIDE1,PEPTIDE1,1:R1-13:R2$$$V2.0
SMILES: C[C@@H](O)[C@@H]1NC(=O)[C@@H]2CSSC[C@H](NC(=O)[C@H](CC3CCCCC3)NC(=O)[C@@H]3CCCN3C(=O)[C@@H]3CCCN3C(=O)[C@H](CC(=O)O)NC(=O)[C@H](CO)NC(=O)[C@H](CCCCN)NC1=O)C(=O)N[C@@H](CC(N)=O)C(=O)N1CCC[C@@H]1C(=O)N1CCC[C@H]1C(=O)N[C@@H](Cc1ccc(N)cc1)C(=O)N2
Take B9: the IC50 was found to be 69 nmol.

B10: Example 32 (peptide)
peptide: XCTKSDPPICY
HELM: PEPTIDE1{[Nc1ccc(C[C@H](N[*:1])C(=O)[*:2])cc1].C.T.K.S.D.P.P.I.C.Y.[dP].P}$PEPTIDE1,PEPTIDE1,2:R3-10:R3|PEPTIDE1,PEPTIDE1,1:R1-13:R2$$$V2.0
SMILES: CC[C@H](C)[C@@H]1NC(=O)[C@@H]2CCCN2C(=O)[C@@H]2CCCN2C(=O)[C@H](CC(=O)O)NC(=O)[C@H](CO)NC(=O)[C@H](CCCCN)NC(=O)[C@H]([C@@H](C)O)NC(=O)[C@@H]2CSSC[C@H](NC1=O)C(=O)N[C@@H](Cc1ccc(O)cc1)C(=O)N1CCC[C@@H]1C(=O)N1CCC[C@H]1C(=O)N[C@@H](Cc1ccc(N)cc1)C(=O)N2
In the case of B10, the IC50 came to 52 nmol.

B11: Example 62 (peptide)
peptide: XCTKSDPPICS
HELM: PEPTIDE1{[O=C([C@H](Cc1cccc2ccccc12)N[*:1])[*:2]].C.T.K.S.D.P.P.I.C.S.[dP].P}$PEPTIDE1,PEPTIDE1,2:R3-10:R3|PEPTIDE1,PEPTIDE1,1:R1-13:R2$$$V2.0
SMILES: CC[C@H](C)[C@@H]1NC(=O)[C@@H]2CCCN2C(=O)[C@@H]2CCCN2C(=O)[C@H](CC(=O)O)NC(=O)[C@H](CO)NC(=O)[C@H](CCCCN)NC(=O)[C@H]([C@@H](C)O)NC(=O)[C@@H]2CSSC[C@H](NC1=O)C(=O)N[C@@H](CO)C(=O)N1CCC[C@@H]1C(=O)N1CCC[C@H]1C(=O)N[C@@H](Cc1cccc3ccccc13)C(=O)N2
B11 displayed an IC50 of 69 nmol.

B12: Example 41 (peptide)
peptide: XCTKSDPPICN
HELM: PEPTIDE1{[Nle].C.T.K.S.D.P.P.I.C.N.[dP].P}$PEPTIDE1,PEPTIDE1,2:R3-10:R3|PEPTIDE1,PEPTIDE1,1:R1-13:R2$$$V2.0
SMILES: CCCC[C@@H]1NC(=O)[C@@H]2CCCN2C(=O)[C@H]2CCCN2C(=O)[C@H](CC(N)=O)NC(=O)[C@@H]2CSSC[C@H](NC1=O)C(=O)N[C@@H]([C@@H](C)O)C(=O)N[C@@H](CCCCN)C(=O)N[C@@H](CO)C(=O)N[C@@H](CC(=O)O)C(=O)N1CCC[C@H]1C(=O)N1CCC[C@H]1C(=O)N[C@@H]([C@@H](C)CC)C(=O)N2
For B12, the IC50 was found to be 49 nmol.

B13: Example 34 (peptide)
peptide: XCTKSDPPICT
HELM: PEPTIDE1{[Cha].C.T.K.S.D.P.P.I.C.T.[dP].P}$PEPTIDE1,PEPTIDE1,2:R3-10:R3|PEPTIDE1,PEPTIDE1,1:R1-13:R2$$$V2.0
SMILES: CC[C@H](C)[C@@H]1NC(=O)[C@@H]2CCCN2C(=O)[C@@H]2CCCN2C(=O)[C@H](CC(=O)O)NC(=O)[C@H](CO)NC(=O)[C@H](CCCCN)NC(=O)[C@H]([C@@H](C)O)NC(=O)[C@@H]2CSSC[C@H](NC1=O)C(=O)N[C@@H]([C@@H](C)O)C(=O)N1CCC[C@@H]1C(=O)N1CCC[C@H]1C(=O)N[C@@H](CC1CCCCC1)C(=O)N2
For the molecule B13, the IC50 is 56 nmol.

The values are drawn from patent US20140213531A1 (POLYPHOR, published 2014).
